Test results from patent publication US20240093191A1, “COMPOSITIONS AND METHODS FOR TREATING DISEASE ASSOCIATED WITH DUX4 OVEREXPRESSION” (RESEARCH INSTITUTE AT NATIONWIDE CHILDREN'S HOSPITAL, priority 2021, published 2024).

B1: H1.mir-675: commercially available H1 promoter mir-675 expression plasmid (SBI Biosciences) (nucleic acid)
DNA: GAACGCTGACGTCATCAACCCGCTCCAAGGAATCGCGGGCCCAGTGTCACTAGGCGGGAACACCCAGCGCGCGTGCGCCCTGGCAGGAAGATGGCTGTGAGGGACAGGGGAGTGGCGCCCTGCAATATTTGCATGTCGCTATGTGTTCTGGGAAATCACCATAAACGTGAAATGTCTTTGGATTTGGGAATCTTATAAGTTCTGTATGAGACCACCCCCCAGGGTCTGGTGCGGAGAGGGCCCACAGTGGACTTGGTGACGCTGTATGCCCTCACCGCTCAGCCCCTGGGGAATTCTTCGATTCTGCTTTTTT
B2: U6.mir-675: U6 promoter-driven mir-675 expression plasmid with 40 nt 5' and 47 nt 3' flanking sequences (nucleic acid)
DNA: GACGCCGCCATCTCTAGGCCCGCGCCGGCCCCCTCGCACAGACTTGTGGGAGAAGCTCGGCTACTCCCCTGCCCCGGTTAATTTGCATATAATATTTCCTAGTAACTATAGAGGCTTAATGTGCGATAAAAGACAGATAATCTGTTCTTTTTAATACTAGCTACATTTTACATGATAGGCTTGGATTTCTATAAGAGATACAAATACTAAATTATTATTTTAAAAAACAGCACAAAAGGAAACTCACCCTAACTGTAAAGTAATTGTGTGTTTTGAGACTATAAATATCCCTTGGAGAAAAGCCTTGTTTGCGTTTAGTGAACCGTCAGATGGTACCGTTTAAACTCGAGCCCAGGGTCTGGTGCGGAGAGGGCCCACAGTGGACTTGGTGACGCTGTATGCCCTCACCGCTCAGCCCCTGGGACTAGAGCGGCCGCCACAGCGGGGAGATCCAGACATGATAAGATACATTTTTT
B3: U6.mi405F: mi405 with one G at 5' end and 16 mer 3' flanking sequence with single CNNC motif (nucleic acid)
DNA: ACGCCGCCATCTCTAGGCCCGCGCCGGCCCCCTCGCACAGACTTGTGGGAGAAGCTCGGCTACTCCCCTGCCCCGGTTAATTTGCATATAATATTTCCTAGTAACTATAGAGGCTTAATGTGCGATAAAAGACAGATAATCTGTTCTTTTTAATACTAGCTACATTTTACATGATAGGCTTGGATTTCTATAAGAGATACAAATACTAAATTATTATTTTAAAAAACAGCACAAAAGGAAACTCACCCTAACTGTAAAGTAATTGTGTGTTTTGAGACTATAAATATCCCTTGGAGAAAAGCCTTGTTTGCTCGAGTGAGCGATCCAGGATTCAGATCTGGTTTCTGTAAAGCCACAGATGGGAAACCAGATCTGAATCCTGGACTGCCTACTAGTAATTCTTCGATTCTGCTTTTTT
B4: U6.mi405G: mi405 construct with altered flanking sequences (nucleic acid)
DNA: ACGCCGCCATCTCTAGGCCCGCGCCGGCCCCCTCGCACAGACTTGTGGGAGAAGCTCGGCTACTCCCCTGCCCCGGTTAATTTGCATATAATATTTCCTAGTAACTATAGAGGCTTAATGTGCGATAAAAGACAGATAATCTGTTCTTTTTAATACTAGCTACATTTTACATGATAGGCTTGGATTTCTATAAGAGATACAAATACTAAATTATTATTTTAAAAAACAGCACAAAAGGAAACTCACCCTAACTGTAAAGTAATTGTGTGTTTTGAGACTATAAATATCCCTTGGAGAAAAGCCTTGTTTGACCGTTTAAACTCGAGTGAGCGATCCAGGATTCAGATCTGGTTTCTGTAAAGCCACAGATGGGAAACCAGATCTGAATCCTGGACTGCCTACTAGAGAATTCTTCGATTCTGCTTTTTT
B5: U6.mi405H: mi405 construct with altered flanking sequences (nucleic acid)
DNA: ACGCCGCCATCTCTAGGCCCGCGCCGGCCCCCTCGCACAGACTTGTGGGAGAAGCTCGGCTACTCCCCTGCCCCGGTTAATTTGCATATAATATTTCCTAGTAACTATAGAGGCTTAATGTGCGATAAAAGACAGATAATCTGTTCTTTTTAATACTAGCTACATTTTACATGATAGGCTTGGATTTCTATAAGAGATACAAATACTAAATTATTATTTTAAAAAACAGCACAAAAGGAAACTCACCCTAACTGTAAAGTAATTGTGTGTTTTGAGACTATAAATATCCCTTGGAGAAAAGCCTTGTTTGACCGTTTAAACTCGAGTGAGCGATCCAGGATTCAGATCTGGTTTCTGTAAAGCCACAGATGGGAAACCAGATCTGAATCCTGGACTGCCTACTAGAGCGCACGCCAGTTTTTT

Legend:
[1] = tested on: DUX4 protein; assay: Western blot of V5-tagged DUX4 protein in co-transfected HEK293 cells; format: cell-based, human; conditions: for Average inhibition efficiency (%) of DUX4 protein levels: CMV.DUX4-FL/CMV.eGFP, molar ratio 1 to 3, eGFP normalizer, relative to U6-milacZ, N = 3-8; for Average inhibition efficiency (%) of DUX4 protein levels / reduction of DUX4 protein levels / reduction of DUX4 protein levels compared to U6.miGFP / reduction of DUX4 protein levels relative to U6.mi405 / reduction of DUX4 protein levels compared to U6.mi405F: HEK293; for effect on DUX4 protein level (DUX4-FL WT): FIG. 18, HEK293 western blot; for reduction of DUX4 protein levels compared to U6.miGFP: DUX4:mi405 molar ratio 2 to 1; for reduction of DUX4 protein levels relative to U6.mi405 / reduction of DUX4 protein levels compared to U6.mi405F: molar ratio 12 to 1, N=4
[2] = tested on: mi405 mature sequence; assay: QPCR of mature mi405 (standard TaqMan cDNA synthesis) in HEK293 cells; format: cell-based, human; conditions: 24 h after transfection
Method: TaqMan Gene Expression Assay. QRT-PCR was carried out to quantify the expression of pri-mir-675, mir-675-5p and mi405 using TaqMan probes (ThermoFisher Scientific). Experiments were started by eliminating genomic DNA from the RNA preparations, and then cDNA was generated using the High-Capacity cDNA Reverse Transcription Kit (Applied Biosystems) following manufacturer's instructions. Within the same cDNA reaction, 1×RT random hexamer primers were used to generate the cDNA for RPL13A, used as a reference gene, and for pri-mir-675. To generate the cDNA for mir-675, the RT mir-675 reverse primer provided by ThermoFisher Scientific was used. For mi405, the mi405 qPCR protocol was done as it was previously described [Wallace et al., Mol. Ther. Methods Clin. Dev. 8: 121-30 (2018)]. To quantify mir-675 and mi405 levels, RNA was extracted using the total RNA protocol for the mirVana miRNA Isolation Kit (Ambion) from HEK293 cells. cDNA was generated using the High-Capacity cDNA Reverse Transcription Kit (Applied Biosystems) using a mix of random hexamer primers and specific reverse primer for pri-mir-675 and mir-675-5p. For mi405, 200 nM of the stem-loop forming primer (5′-[…]-3′) (SEQ ID NO: 144) was also used for the RT step. A custom TaqMan assay (Applied Biosystems) including 1.5 μM of Forward primer (5′-[…]-3′) (SEQ ID NO: 145), 0.7 μM of Reverse primer (5′-GTGCAGGGTCCGAGGT-3′) (SEQ ID NO: 146), and 0.2 μM of mi405 probe (5′-6FAM-ATACGACGTCCAGGAT-3′) (SEQ ID NO: 147) was then run using the CFX Connect Real Time system apparatus (Bio-Rad). RPL13A (Mm02526700_g1; Applied Biosystems) served as the reference gene. The TaqMan gene expression assay consisted of using the TaqMan Gene Expression Master mix and TaqMan probes purchased from ThermoFisher Scientific. 1× of probe was mixed with 1× of the TaqMan Gene Expression Master mix (ThermoFisher Scientific), and with 20 ng of cDNA. The mir-675- and mi405-specific primers and probes were designed to quantify only the mir-675-5p and mi405 mature sequence (see TaqMan Gene Expression Master mix protocol).
Apart from the effect on the inhibition efficiency of mi405, the effect of the flanking sequences on the expression of the miRNA also was tested. Therefore, the expression of the processed mature mi405 sequences was quantified using the standard and advanced TaqMan cDNA synthesis reaction. In the former reaction, a reverse primer detects the mature mi405 sequence following a stem-loop primer-based small RNA detection principle (ThermoFisher Scientific) (Jung et al., RNA (2013) 19: 1-10). The amplification and quantification steps were then performed using a standard TaqMan probe specific to mi405 that base pairs at the junction between the mi405 mature sequence and the reverse primer sequence (FIG. 6A). […] In the TaqMan advanced cDNA synthesis reaction, the mature sequence is extended through ligation of an adaptor sequence at the 5′ end and through the enzymatic addition of a polyA tail at the 3′ end of the mature mi405 sequence. The amplification and quantification steps were then performed using a TaqMan advanced probe specific to mi405 that normally base pairs with the 3′ end of the mature miRNA and with part of the adaptor sequence. Here, an additional TaqMan advanced probe (embedded probe) that only base pairs with the mature sequence of mi405 (FIG. 6B) was used. As a result, following TaqMan advanced cDNA synthesis reaction, droplet digital PCR (ddPCR) was performed to quantify mi405, mi405F, mi405B, mi405C, mi405G and mi405H expression levels. For this, TaqMan advanced embedded and overlapped mi405 probes (FIG. 6B) were used.

Row | Molecule | Average inhibition efficiency (%) of DUX4 protein levels [1] | effect on DUX4 protein level (DUX4-FL WT) [1] | reduction of DUX4 protein levels ([1]; AAV.CMV.DUX4-FL co-transfection, 24 h, β-actin normalizer, relative to U6.milacZ) | increase of inhibition efficiency compared to U6.mi405 (western blot) ([1]; 1:4 DUX4:mi405 molar ratio, 24 h) | reduction of DUX4 protein levels ([1]; 1:4 DUX4:mi405 molar ratio, 24 h, normalized to miGFP, N=2) | reduction of DUX4 protein levels compared to U6.miGFP ([1]; 24 h) | reduction of DUX4 protein levels relative to U6.mi405 ([1]; 24 h) | reduction of mature mi405 sequence expression relative to U6.mi405 ([2]; normalized to RPL13A) | reduction of DUX4 protein levels compared to U6.mi405F ([1]; 24 h) | levels of mature mi405 sequence compared to U6.mi405 [2]
1 | B1 | 68 ± 5 (N = 4) % | reduce DUX4 protein level |  |  |  |  |  |  |  | 
2 | B2 | 43±4% | reduce DUX4 protein level | 46±11% |  |  |  |  |  |  | 
3 | B3 |  |  |  | 20% | 99±1% | 81±9% | 40±5% | 85±5% |  | 
4 | B4 |  |  |  |  |  | 88±2% | 71±5% |  | 52±9% | greater or higher with the difference not being statistically significant
5 | B5 |  |  |  |  |  | 79±6% | 60±8% |  | 33±14% | greater or higher with the difference not being statistically significant
